# Results taken from patent US20030104423A1 (WISCONSIN ALUMNI RESEARCH FOUNDATION, published 2003).
# B1: σ32 of E. coli (the cell's own) (other)
# chain: MTDKMQSLALAPVGNLDSYIRAANAWPMLSADEERALAEKLHYHGDLEAAKTLILSHLRFVVHIARNYAGYGLPQADLIQEGNIGLMKAVRRFNPEVGVRLVSFAVHWIKAEIHEYVLRNWRIVKVATTKAQRKLFFNLRKTKQRLGWFNQDEVEMVARELGVTSKDVREMESRMAAQDMTFDLSSDDDSDSQPMAPVLYLQDKSSNFADGIEDDNWEEQAANRLTDAMQGLDERSQDIIRARWLDEDNKSTLQELADRYGVSAERVRQLEKNAMKKLRAAIEA
# notes: also called E?32
# B2: σF of E. coli (the cell's own) (other)
# chain: MNSLYTAEGVMDKHSLWQRYVPLVRHEALRLQVRLPASVELDDLLQAGGIGLLNAVERYDALQGTAFTTYAVQRIRGAMLDELRSRDWVPRSVRRNAREVAQAIGQLEQELGRNATETEVAERLGIDIADYRQMLLDTNNSQLFSYDEWREEHGDSIELVTDDHQRENPLQQLLDSNLRQRVMEAIETLPEREKLVLTLYYQEELNLKEIGAVLEVGESRVSQLHSQAIKRLRTKLGKL
# B3: β′1-319 Q300E (pTA617) (enzyme)
# chain: MKDLLKFLKAQTKTEEFDAIKIALASPDMIRSWSFGEVKKPETINYRTFKPERDGLFCARIFGPVKDYECLCGKYKRLKHRGVICEKCGVEVTQTKVRRERMGHIELASPTAHIWFLKSLPSRIGLLLDMPLRDIERVLYFESYVVIEGGMTNLERQQILTEEQYLDALEEFGDEFDAKMGAEAIQALLKSMDLEQECEQLREELNETNSETKRKKLTKRIKLLEAFVQSGNKPEWMILTVLPVLPPDLRPLVPLDGGRFATSDLNDLYRRVINRNNRLKRLLDLAAPDIIVRNEKRMLEEAVDALLDNGRRGRAITGS
# B4: HMK-His6-β′(100-309), IC5-labeled (pTA133) (enzyme)
# chain: MARRASVHHHHHHMERMGHIELASPTAHIWFLKSLPSRIGLLLDMPLRDIERVLYFESYVVIEGGMTNLERQQILTEEQYLDALEEFGDEFDAKMGAEAIQALLKSMDLEQECEQLREELNETNSETKRKKLTKRIKLLEAFVQSGNKPEWMILTVLPVLPPDLRPLVPLDGGRFATSDLNDLYRRVINRNNRLKRLLDLAAPDIIVRNEKRMLQEAVDALLDN
# notes: also called labeled β′-fragment; IC5-labeled β′-fragment
# B5: HMK-His6-β′(100-309), unlabeled (pTA133) (enzyme)
# chain: B4 chain
# notes: also called unlabeled β′-fragment
# B6: N-terminally His6-tagged β′ 1-309, hydroxylamine cleavage fragment (from pTA499) (enzyme)
# chain: HHHHHHMKDLLKFLKAQTKTEEFDAIKIALASPDMIRSWSFGEVKKPETINYRTFKPERDGLFCARIFGPVKDYECLCGKYKRLKHRGVICEKCGVEVTQTKVRRERMGHIELASPTAHIWFLKSLPSRIGLLLDMPLRDIERVLYFESYVVIEGGMTNLERQQILTEEQYLDALEEFGDEFDAKMGAEAIQALLKSMDLEQECEQLREELNETNSETKRKKLTKRIKLLEAFVQSGNKPEWMILTVLPVLPPDLRPLVPLDGGRFATSDLNDLYRRVINRNNRLKRLLDLAAPDIIVRNEKRMLQEAVDALLDN
# B7: β′1-309, untagged (pTA518) (enzyme)
# chain: MKDLLKFLKAQTKTEEFDAIKIALASPDMIRSWSFGEVKKPETINYRTFKPERDGLFCARIFGPVKDYECLCGKYKRLKHRGVICEKCGVEVTQTKVRRERMGHIELASPTAHIWFLKSLPSRIGLLLDMPLRDIERVLYFESYVVIEGGMTNLERQQILTEEQYLDALEEFGDEFDAKMGAEAIQALLKSMDLEQECEQLREELNETNSETKRKKLTKRIKLLEAFVQSGNKPEWMILTVLPVLPPDLRPLVPLDGGRFATSDLNDLYRRVINRNNRLKRLLDLAAPDIIVRNEKRMLQEAVDALLDN
# B8: His6-HMK-β′1-309 (pTA525) (enzyme)
# chain: B7 chain
# Experiments:
# [1] = target: T1, β′ 1-1407 A302D with C-terminal His6 (pTA608) (Escherichia coli, UniProt P0A8T7 1-1407); test: Assembly Eσ32 holo: co-purification with His6-β′ from cells, Western blot; grade
# T1 construct: range 1-1407
# Experimental: (§1) The cultures were grown at 37° C. with shaking until the A₆₀₀=0.4 for log phase assays and 2 hours longer (A₆₀₀ about 2.0) for the early stationary phase assays. The cells were harvested by centrifugation at 6,000 rpm for 10 minutes and stored at −20° C. until use. The cell pellets were resuspended in 5 ml TE (10 mM Tris-HCl, pH 7.9 and 0.1 mM EDTA) plus 0.15 M NaCl and lysozyme (0.1 mg/ml) then incubated on ice for 15 minutes. The cells were sonicated 2×30 seconds and centrifuged for 25 minutes at 27,000× g to pellet the insoluble material. […] The column was washed with 15 ml TE plus 0.15 M NaCl followed by a second wash with 10 ml TE plus 0.5 M NaCl. The protein was eluted from the column with 4 ml TE plus 0.7 M NaCl and 30% propylene glycol. The eluted sample (4 ml) was diluted with 6 ml buffer B (20 mM Tris-HCl, pH 7.9, 500 mM NaCl, 5 mM imidazole, 0.1% (v/v) Tween 20, and 10% (v/v) glycerol) and loaded (2×) onto 500 μl of Ni²⁺-NTA resin. The resin was washed (2×) with 5 ml of buffer B and eluted with 0.5 ml buffer B plus 0.25 M imidazole. Samples from the elution fractions were assayed by Western blot as described above using Mabs to each subunit or a factor. The secondary antibodies were horseradish peroxidase-labeled goat antimouse IgG antibodies and the signal was generated using the ECL+ substrate system (Amersham) and detected using the STORM FluoroImager and quantitated with IMAGEQUANT software (Molecular Dynamics).
# [2] = target: T2, β′ 1-1407 Y269A with C-terminal His6 (pTA601) (Escherichia coli, UniProt P0A8T7 1-1407); test: as above
# T2 construct: range 1-1407
# Experimental: as §1
# [3] = target: T3, β′ 1-1407 K280E with C-terminal His6 (pTA603) (Escherichia coli, UniProt P0A8T7 1-1407); test: as above
# T3 construct: range 1-1407
# Experimental: as §1
# [4] = target: T4, β′ 1-1407 N309D with C-terminal His6 (pTA609) (Escherichia coli, UniProt P0A8T7 1-1407); test: as above
# T4 construct: range 1-1407
# Experimental: as §1
# [5] = target: T5, β′ 1-1407 wild type with C-terminal His6 (pTA577) (Escherichia coli, UniProt P0A8T7 1-1407); test: as above
# T5 construct: range 1-1407; also called wt; wild type β′
# Experimental: as §1
# [6] = target: T6, β′ 1-1407 R293Q with C-terminal His6 (pTA604) (Escherichia coli, UniProt P0A8T7 1-1407); test: as above
# T6 construct: range 1-1407
# Experimental: as §1
# [7] = target: T7, β′ 1-1407 R275Q with C-terminal His6 (pTA602) (Escherichia coli, UniProt P0A8T7 1-1407); test: as above
# T7 construct: range 1-1407
# Experimental: as §1
# [8] = target: T8, β′ 1-1407 N266D with C-terminal His6 (pTA600) (Escherichia coli, UniProt P0A8T7 1-1407); test: as above
# T8 construct: range 1-1407
# Experimental: as §1
# [9] = target: T9, β′ 1-1407 E295K with C-terminal His6 (pTA605) (Escherichia coli, UniProt P0A8T7 1-1407); test: as above
# T9 construct: range 1-1407
# Experimental: as §1
# [10] = target: T10, β′ 1-1407 Q300E with C-terminal His6 (pTA607) (Escherichia coli, UniProt P0A8T7 1-1407); test: as above
# T10 construct: range 1-1407
# Experimental: as §1
# [11] = target: T11, β′ 1-1407 R297S with C-terminal His6 (pTA606) (Escherichia coli, UniProt P0A8T7 1-1407); test: as above
# T11 construct: range 1-1407
# Experimental: as §1
# [12] = target: T5, β′ 1-1407 wild type with C-terminal …; test: co-purification with His6-β′ from cells, Western blot
# [13] = target: T10, β′ 1-1407 Q300E with C-terminal His6 …; test: as above
# [14] = target: T11, β′ 1-1407 R297S with C-terminal His6 …; test: as above
# [15] = target: T12, HMK-His6-σ70, 32P-labeled (pHMK-His6-σ70) (Escherichia coli, UniProt P00579 1-613); test: far-Western of β′1-319 in cell extract, normalized to Western
# T12 construct: range 1-613; also called ^32P-labeled ?^70; HMK-?^70
# [16] = target: T13, σ70 (C132S, C291S, C295S, S442C), labeled with Eu-DTPA-AMCA (pSigma70(442C)) (Escherichia coli, UniProt P00579 1-613); test: electrophoretic mobility shift (EMS) assay, native gel
# T13 construct: also called labeled ?^70
# [17] = target: T13, σ70 (C132S, C291S, C295S, S442C), …; test: EMS assay, competition with labeled β′-fragment
# [18] = target: T12, HMK-His6-σ70, 32P-labeled …; test: ordered fragment ladder far-Western, 32P-σ70 probe
# [19] = target: T12, HMK-His6-σ70, 32P-labeled …; test: far-Western of whole cell lysate, 32P-σ70 probe
# [20] = target: T14, σ70, native, untagged (pLN12) (Escherichia coli, UniProt P00579 1-613); test: mixed with σ70 and passed over Ni-NTA (control)
# T14 construct: range 1-613; also called native ?^70
# [21] = target: T14, σ70, native, untagged (pLN12); test: Ni-NTA co-immobilization, SDS-PAGE
# [22] = target: T15, Bovine serum albumin (bovine, UniProt P02769 25-607); test: Ni-NTA co-immobilization, SDS-PAGE
# T15 construct: also called BSA
# T15 sequence (P02769 25-607 limits assumed): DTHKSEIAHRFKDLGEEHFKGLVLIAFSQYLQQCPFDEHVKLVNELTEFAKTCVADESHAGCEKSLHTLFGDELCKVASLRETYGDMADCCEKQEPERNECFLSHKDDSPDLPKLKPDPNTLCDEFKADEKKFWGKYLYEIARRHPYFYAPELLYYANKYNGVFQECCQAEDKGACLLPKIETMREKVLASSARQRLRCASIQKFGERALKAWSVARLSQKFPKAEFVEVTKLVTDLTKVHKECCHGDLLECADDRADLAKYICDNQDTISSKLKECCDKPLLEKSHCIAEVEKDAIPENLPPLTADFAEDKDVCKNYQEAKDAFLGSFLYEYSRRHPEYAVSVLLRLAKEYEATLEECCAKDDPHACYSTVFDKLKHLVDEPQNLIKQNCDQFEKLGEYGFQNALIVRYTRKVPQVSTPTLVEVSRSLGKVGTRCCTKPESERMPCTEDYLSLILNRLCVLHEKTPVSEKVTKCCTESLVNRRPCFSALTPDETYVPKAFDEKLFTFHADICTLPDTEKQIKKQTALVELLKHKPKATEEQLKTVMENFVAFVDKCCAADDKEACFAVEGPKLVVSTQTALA
binder,measurement,setting,value
B1,binding result,[1],no binding
same,binding result,[2],binds
same,binding result,[3],binds
same,binding result,[4],binds
same,binding result,[5],binds
same,binding result,[6],binds
same,binding result,[7],no binding
same,binding result,[8],no binding
same,binding result,[9],no binding
same,binding result,[10],binds
same,binding result,[11],binds
B2,binding result,[12],binds
same,binding result,[13],binds
same,binding result,[14],binds
B3,relative binding against wild type β′1-319,[15],> 7 fold
B4,binding result,[16],binds
B5,binding result,[17],binds
B6,binding result,[18],binds
B7,binding result,[19],binds
same,binding result,[20],binds
B8,binding result,[21],binds
same,binding result,[22],no binding
